Patent US7786083B2, “Metastin derivatives and use thereof” (Takeda Pharmaceutical Company Limited, priority 2006, dated 2010)
*1 amine or outer side, *2 acyl side, *3 side chain or, on linkers, in order; H or OH if unused. [ ]: non-standard residue; d: D form. Ser(Me) = O-methylserine, COC[C@H](N[*:1])C(=O)[*:2]; 2Nal = N[C@@H](Cc1ccc2ccccc2c1)C(=O)O; Arg(Me) = CNC(=N)NCCC[C@H](N)C(=O)O; Dap(CONH2) = NC(=O)NC[C@H](N)C(=O)O; Ala(cPr) = N[C@@H](CC1CC1)C(=O)O; Hyp = O=C(O)[C@@H]1C[C@@H](O)CN1; Aad = N[C@@H](CCCC(=O)O)C(=O)O; Cha = N[C@@H](CC1CCCCC1)C(=O)O; Cit = NC(=O)NCCC[C@H](N)C(=O)O; Nva = CCC[C@H](N)C(=O)O; Abu = CC[C@H](N)C(=O)O; Aib = CC(C)(N)C(=O)O

B1: des(1)-Ac-[D-Tyr2,Hyp3,Thr5,Aib7,Arg(Me)9,Trp10]MS10 (peptide)
peptide: Ac-[dY][Hyp]NTF[Aib]L[Arg(Me)]W-NH2
B2: des(1)-Ac-[D-Tyr2,Glu3,Thr5,Gly7Ψ((E)CH═CH)Leu8,Arg(Me)9,Trp10]MS10 (peptide)
peptide: Ac-[dY]ENTFGL[Arg(Me)]W-NH2
modifications: also: Gly6-Leu7 -CONH- replaced by (E) type alkene
B3: des(1)-Ac-[D-Tyr2,Glu3,Alb4,Thr5,Gly7Ψ((E)CH═CH)Leu8,Arg(Me)9,Trp10]MS10 (peptide)
peptide: Ac-[dY]E[Dap(CONH2)]TFGL[Arg(Me)]W-NH2
modifications: also: Gly6-Leu7 -CONH- replaced by (E) type alkene
B4: des(1)-Ac-[D-Tyr2,Asp3,Thr5,Cha6,Ala(cPr)8,Arg(Me)9,Trp10]MS10 (peptide)
peptide: Ac-[dY]DNT[Cha]G[Ala(cPr)][Arg(Me)]W-NH2
B5: des(1)-Ac-[D-Tyr2,Aad3,Thr5,Cha6,Ala(cPr)8,Arg(Me)9,Trp10]MS10 (peptide)
peptide: Ac-[dY][Aad]NT[Cha]G[Ala(cPr)][Arg(Me)]W-NH2
B6: des(1)-Ac-[D-Tyr2,Lys3,Thr5,Cha6,Ala(cPr)8,Arg(Me)9,Trp10]MS10 (peptide)
peptide: Ac-[dY]KNT[Cha]G[Ala(cPr)][Arg(Me)]W-NH2
modifications: also: classed as cyclised or stapled
B7: des(1)-Ac-[D-Tyr2,Aib3,Thr5,Cha6,Ala(cPr)8,Arg(Me)9,Trp10]MS10 (peptide)
peptide: Ac-[dY][Aib]NT[Cha]G[Ala(cPr)][Arg(Me)]W-NH2
B8: des(1)-Ac-[D-Tyr2,Hyp3,Gln4,Thr5,Cha6,Gly7Ψ((E)CH═CH)Leu8,Arg(Me)9,Trp10]MS10 (peptide)
peptide: Ac-[dY][Hyp]QT[Cha]GL[Arg(Me)]W-NH2
modifications: also: Gly6-Leu7 -CONH- replaced by (E)-CH=CH-
B9: des(1)-Ac-[D-Tyr2,Hyp3,Cit4,Thr5,Cha6,Gly7Ψ((E)CH═CH)Leu8,Arg(Me)9,Trp10]MS10 (peptide)
peptide: Ac-[dY][Hyp][Cit]T[Cha]GL[Arg(Me)]W-NH2
modifications: also: Gly6-Leu7 -CONH- replaced by (E)-CH=CH-
B10: des(1)-Ac-[D-Tyr2,Hyp3,Glu4,Thr5,Cha6,Gly7Ψ((E)CH═CH)Leu8,Arg(Me)9,Trp10]MS10 (peptide)
peptide: Ac-[dY][Hyp]ET[Cha]GL[Arg(Me)]W-NH2
modifications: also: Gly6-Leu7 -CONH- replaced by (E)-CH=CH-
B11: des(1)-Ac-[D-Tyr2,Hyp3,Thr5,Ala(cPr)8,Arg(Me)9,Trp10]MS10 (peptide)
peptide: Ac-[dY][Hyp]NTFG[Ala(cPr)][Arg(Me)]W-NH2
B12: des(1)-Ac-[D-Tyr2,Hyp3,Thr5,Abu7,Arg(Me)9,Trp10]MS10 (peptide)
peptide: Ac-[dY][Hyp]NTF[Abu]L[Arg(Me)]W-NH2
B13: des(1)-Ac-[D-Tyr2,Hyp3,Thr5,Ser(Me)8,Arg(Me)9,Trp10]MS10 (peptide)
peptide: Ac-[dY][Hyp]NTFG[Ser(Me)][Arg(Me)]W-NH2
B14: des(1)-Ac-[D-Tyr2,Hyp3,Thr5,Nva8,Arg(Me)9,Trp10]MS10 (peptide)
peptide: Ac-[dY][Hyp]NTFG[Nva][Arg(Me)]W-NH2
B15: des(1)-Ac-[D-Tyr2,Hyp3,Thr5,Nal(2)6,Arg(Me)9,Trp10]MS10 (peptide)
peptide: Ac-[dY][Hyp]NT[2Nal]GL[Arg(Me)]W-NH2
modifications: not fully specified (residue 7); printed as Ac-D-Tyr-Hyp-Asn-Thr-Nal(2)-Gly-Ala(cPr)-Arg(Me)-Trp-NH2
B16: des(1)-Ac-[D-Tyr2,Hyp3,Thr5,Cha6,Ser(Me)8,Arg(Me)9,Trp10]MS10 (peptide)
peptide: Ac-[dY][Hyp]NT[Cha]G[Ser(Me)][Arg(Me)]W-NH2
SMILES: CNC(=N)NCCC[C@H](NC(=O)[C@H](COC)NC(=O)CNC(=O)[C@H](CC1CCCCC1)NC(=O)[C@@H](NC(=O)[C@H](CC(N)=O)NC(=O)[C@@H]1C[C@@H](O)CN1C(=O)[C@@H](Cc1ccc(O)cc1)NC(C)=O)[C@@H](C)O)C(=O)N[C@@H](Cc1c[nH]c2ccccc12)C(N)=O
B17: des(1)-Ac-[D-Tyr2,Hyp3,Thr5,Cha6,Nva8,Arg(Me)9,Trp10]MS10 (peptide)
peptide: Ac-[dY][Hyp]NT[Cha]G[Nva][Arg(Me)]W-NH2
SMILES: CCC[C@H](NC(=O)CNC(=O)[C@H](CC1CCCCC1)NC(=O)[C@@H](NC(=O)[C@H](CC(N)=O)NC(=O)[C@@H]1C[C@@H](O)CN1C(=O)[C@@H](Cc1ccc(O)cc1)NC(C)=O)[C@@H](C)O)C(=O)N[C@@H](CCCNC(=N)NC)C(=O)N[C@@H](Cc1c[nH]c2ccccc12)C(N)=O
B18: des(1)-Ac-[D-Tyr2,Glu3,Thr5,Cha6,Ser(Me)8,Arg(Me)9,Trp10]MS10 (peptide)
peptide: Ac-[dY]ENT[Cha]G[Ser(Me)][Arg(Me)]W-NH2
B19: des(1)-Ac-[D-Tyr2,Glu3,Thr5,Cha6,Nva8,Arg(Me)9,Trp10]MS10 (peptide)
peptide: Ac-[dY]ENT[Cha]G[Nva][Arg(Me)]W-NH2
B20: des(1)-Ac-[D-Tyr2,Hyp3,Thr5,Gly7Ψ((E)CH═CH)Leu8,Trp10]MS10 (peptide)
peptide: Ac-[dY][Hyp]NTFGLRW-NH2
modifications: also: Gly6-Leu7 -CONH- replaced by (E) CH=CH
B21: des(1)-Ac-[D-Tyr2,Hyp3,Thr5,Cha6,Gly7Ψ((E)CH═CH)Leu8,Trp10]MS10 (peptide)
peptide: Ac-[dY][Hyp]NT[Cha]GLRW-NH2
modifications: also: Gly6-Leu7 -CONH- replaced by (E) CH=CH
B22: des(1)-Ac-[D-Tyr2,Hyp3,Alb4,Thr5,Cha6,Gly7Ψ((E)CH═CH)Leu8,Trp10]MS10 (peptide)
peptide: Ac-[dY][Hyp][Dap(CONH2)]T[Cha]GLRW-NH2
modifications: also: Gly6-Leu7 -CONH- replaced by (E)-CH=CH-
B23: des(1)-Ac-[D-Tyr2,Hyp3,Thr5,Cha6,Arg(Me)9,Trp10]MS10 (peptide)
peptide: Ac-[dY][Hyp]NT[Cha]GL[Arg(Me)]W-NH2
SMILES: CNC(=N)NCCC[C@H](NC(=O)[C@H](CC(C)C)NC(=O)CNC(=O)[C@H](CC1CCCCC1)NC(=O)[C@@H](NC(=O)[C@H](CC(N)=O)NC(=O)[C@@H]1C[C@@H](O)CN1C(=O)[C@@H](Cc1ccc(O)cc1)NC(C)=O)[C@@H](C)O)C(=O)N[C@@H](Cc1c[nH]c2ccccc12)C(N)=O
B24: des(1)-Ac-[D-Tyr2,Hyp3,Thr5,Gly7Ψ(CH2S)Leu8,Arg(Me)9,Trp10]MS10 (peptide)
peptide: Ac-[dY][Hyp]NTFGL[Arg(Me)]W-NH2
modifications: also: Gly6-Leu7 -CONH- replaced by -CH2S-

Biological target: metastin receptor (OT7T175) stably expressed on CHO/dhfr- cells (human or rat, not given)
Assay: cell-based or functional assay

Binder | Specific Activity (EC50 of test compound based on EC50 of Metastin (45-54)); agonist activity, intracellular calcium ion level, FLIPR (ratio to Metastin (45-54))
B1 | 1.5
B2 | 0.6
B3 | 0.5
B4 | 2.5
B5 | 1.1
B6 | 0.7
B7 | 0.6
B8 | 1.4
B9 | 0.9
B10 | 4.6
B11 | 0.8
B12 | 1
B13 | 0.8
B14 | 0.7
B15 | 1
B16 | 0.5
B17 | 0.5
B18 | 0.5
B19 | 0.4
B20 | 0.4
B21 | 0.6
B22 | 0.5
B23 | 0.3
B24 | 1.2
